# Results as given in PMC10198859.
# Starred links: 1 amine or outer side, 2 acyl side, 3 side chain; linkers in the order of their positions; H or OH if unused. No end group written: not given here. *: point of attachment. Suc = O=C(CCC(=O)[*:2])[*:1]; For = O=C*
# Molecular target: murine TLR2/TLR6 (mouse (endogenous in RAW 264.7 and P388.D1)) (UniProt Q9QUN7)
# Sequence of UniProt Q9QUN7 (Q9QUN7 25-784, chain 1 of 2): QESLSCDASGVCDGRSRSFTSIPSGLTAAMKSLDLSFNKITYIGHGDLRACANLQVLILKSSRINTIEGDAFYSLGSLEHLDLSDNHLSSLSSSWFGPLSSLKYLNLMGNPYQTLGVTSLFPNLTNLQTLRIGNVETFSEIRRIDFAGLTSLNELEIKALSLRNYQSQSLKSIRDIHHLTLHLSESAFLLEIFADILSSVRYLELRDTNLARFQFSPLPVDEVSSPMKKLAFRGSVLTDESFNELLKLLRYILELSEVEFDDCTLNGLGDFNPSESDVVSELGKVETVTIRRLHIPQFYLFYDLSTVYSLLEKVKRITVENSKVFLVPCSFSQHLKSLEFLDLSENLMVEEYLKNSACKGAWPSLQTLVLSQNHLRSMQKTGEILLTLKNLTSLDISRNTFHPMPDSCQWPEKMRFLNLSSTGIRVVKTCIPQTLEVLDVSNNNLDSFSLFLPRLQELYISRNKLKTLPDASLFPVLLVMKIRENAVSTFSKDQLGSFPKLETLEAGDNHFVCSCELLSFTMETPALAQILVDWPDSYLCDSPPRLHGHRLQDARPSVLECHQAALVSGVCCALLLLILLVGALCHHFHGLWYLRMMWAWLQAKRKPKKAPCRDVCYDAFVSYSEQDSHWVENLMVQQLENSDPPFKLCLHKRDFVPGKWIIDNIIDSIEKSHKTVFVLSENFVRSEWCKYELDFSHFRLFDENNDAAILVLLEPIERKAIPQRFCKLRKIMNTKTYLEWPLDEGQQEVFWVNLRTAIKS
# Sequence of UniProt Q9QUN7 (Q9EPW9 28-795, chain 2 of 2, further chain): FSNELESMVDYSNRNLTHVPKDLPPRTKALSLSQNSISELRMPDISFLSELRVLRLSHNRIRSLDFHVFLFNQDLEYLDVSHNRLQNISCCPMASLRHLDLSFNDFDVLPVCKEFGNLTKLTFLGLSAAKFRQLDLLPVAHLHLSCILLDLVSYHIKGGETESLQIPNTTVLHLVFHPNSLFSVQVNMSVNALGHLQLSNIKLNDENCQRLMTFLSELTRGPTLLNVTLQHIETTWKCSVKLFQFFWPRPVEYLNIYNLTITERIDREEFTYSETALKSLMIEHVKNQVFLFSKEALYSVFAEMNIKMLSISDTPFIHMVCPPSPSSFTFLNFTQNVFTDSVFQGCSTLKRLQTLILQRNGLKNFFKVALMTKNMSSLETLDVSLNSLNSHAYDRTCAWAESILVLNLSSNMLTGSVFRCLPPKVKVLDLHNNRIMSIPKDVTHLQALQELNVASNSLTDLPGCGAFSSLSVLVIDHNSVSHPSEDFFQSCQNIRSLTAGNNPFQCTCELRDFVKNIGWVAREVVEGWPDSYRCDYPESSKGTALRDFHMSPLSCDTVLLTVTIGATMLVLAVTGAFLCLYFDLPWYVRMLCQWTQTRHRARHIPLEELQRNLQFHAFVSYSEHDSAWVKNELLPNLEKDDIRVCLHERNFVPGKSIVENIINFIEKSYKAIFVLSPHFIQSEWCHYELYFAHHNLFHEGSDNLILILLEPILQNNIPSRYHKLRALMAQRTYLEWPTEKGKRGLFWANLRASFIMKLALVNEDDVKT
molecule,measurement,value
-fM-BacSp222 (from UniProt A0A0P0C3P7 2-50) (peptide),"TNF in the medium (ELISA) of P388.D1 cells, 1 µM -fM-BacSp222, 6 h, without antagonist",257 pg/mL
For-MAGLLRFLLSKGRALYNWAK(Suc)SHVGKVWEWLKSGATYEQIKEWIENALGWR [suc-K20-BacSp222],"TNF in the medium (ELISA) of P388.D1 cells, 1 µM suc-K20-BacSp222, 6 h, without antagonist",213 pg/mL
same,"TNF in the medium (ELISA) of RAW 264.7 cells, 1 µM suc-K20-BacSp222, 6 h, without antagonist",1280 pg/mL
For-MAGLLRFLLSKGRALYNWAKSHVGKVWEWLKSGATYEQIKEWIENALGWR [BacSp222 bacteriocin],"TNF in the medium (ELISA) of P388.D1 cells, 1 µM BacSp222, 6 h, without antagonist",252 pg/mL
same,"TNF in the medium (ELISA) of RAW 264.7 cells, 1 µM BacSp222, 6 h, without antagonist",976 pg/mL
